Experimental data reported in patent WO2010108824A1 (dated 2010).

T1: GST-ABD1+2 of L-plastin (human, UniProt P13796 106-627)
T1 construct: domain: ABD1+2; also called both ABDs combined; combination of the two ABDs; not shown: glutathione S-transferase tag of vector pGEX-2T
T1 sequence (looked up): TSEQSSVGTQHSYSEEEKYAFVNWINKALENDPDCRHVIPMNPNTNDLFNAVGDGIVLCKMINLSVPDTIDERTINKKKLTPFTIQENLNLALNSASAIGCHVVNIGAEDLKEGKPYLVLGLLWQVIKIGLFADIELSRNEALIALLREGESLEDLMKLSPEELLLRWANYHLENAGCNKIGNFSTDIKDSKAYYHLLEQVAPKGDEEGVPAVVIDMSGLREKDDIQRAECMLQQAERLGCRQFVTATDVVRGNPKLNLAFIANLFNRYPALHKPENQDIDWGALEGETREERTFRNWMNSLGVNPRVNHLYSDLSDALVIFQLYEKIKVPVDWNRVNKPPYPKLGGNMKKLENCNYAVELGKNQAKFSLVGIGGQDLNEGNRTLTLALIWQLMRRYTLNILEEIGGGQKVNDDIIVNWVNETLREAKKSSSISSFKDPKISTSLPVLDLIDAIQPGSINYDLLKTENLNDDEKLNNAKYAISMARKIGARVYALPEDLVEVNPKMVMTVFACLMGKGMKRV

B1: human L-plastin (other, UniProt P13796 2-627, looked up)
chain: ARGSVSDEEMMELREAFAKVDTDGNGYISFNELNDLFKAACLPLPGYRVREITENLMATGDLDQDGRISFDEFIKIFHGLKSTDVAKTFRKAINKKEGICAIGGTSEQSSVGTQHSYSEEEKYAFVNWINKALENDPDCRHVIPMNPNTNDLFNAVGDGIVLCKMINLSVPDTIDERTINKKKLTPFTIQENLNLALNSASAIGCHVVNIGAEDLKEGKPYLVLGLLWQVIKIGLFADIELSRNEALIALLREGESLEDLMKLSPEELLLRWANYHLENAGCNKIGNFSTDIKDSKAYYHLLEQVAPKGDEEGVPAVVIDMSGLREKDDIQRAECMLQQAERLGCRQFVTATDVVRGNPKLNLAFIANLFNRYPALHKPENQDIDWGALEGETREERTFRNWMNSLGVNPRVNHLYSDLSDALVIFQLYEKIKVPVDWNRVNKPPYPKLGGNMKKLENCNYAVELGKNQAKFSLVGIGGQDLNEGNRTLTLALIWQLMRRYTLNILEEIGGGQKVNDDIIVNWVNETLREAKKSSSISSFKDPKISTSLPVLDLIDAIQPGSINYDLLKTENLNDDEKLNNAKYAISMARKIGARVYALPEDLVEVNPKMVMTVFACLMGKGMKRV
notes: mature; the assay field says which; also called L-fimbrin; endogenous L-plastin

Key:
human L-plastin = target: B1; assay: ITC, L-plastin titrated with His6-tagged nanobody
GST-ABD1+2 of L-plastin = target: T1, GST-ABD1+2 of L-plastin; assay: ITC, nanobody with GST-tagged L-plastin domain
[1] = target: the molecule itself; assay: Superdex 200 HR gel filtration of L-plastin alone

Row | Kd (human L-plastin) | Kd (GST-ABD1+2 of L-plastin) | Binder | binding result [1]
1 | ~0.04 µM | 0.0465 µM | L-plastin nanobody 5 (VHH, Alpaca VHH; His6-tagged recombinant protein (pHEN6c, E. coli) in ITC, gel filtration, pull-down, cross-linking and co-sedimentation; V5-tagged, MOM-V5-tagged or GFP-fused when expressed in PC-3 cells; also called Nb 5; Nb5) VHH: QVQLQESGGGLVQAGDSLRLSCAVSGGTFGRVGVGWFRRAPGKEREFVAAVNWSGISTFYADSVKGRFTISRDDNKHTVDLRMNSLKPEDSAVYFCATDFRFNVPMNGTEYDYWGQGTQVTVSS | 
2 |  |  | B1 | binds
